± gives the uncertainty stated by the source.
B1: Peripheral plasma membrane protein CASK, residues 488 to 569; numbered along this chain, O14936 (parent)
chain: VRLVQFQKNTDEPMGITLKMNELNHCIVARIMHGGMIHRQGTLHVGDEIREINGISVANQTVEQLQKMLREMRGSITFKIVP

Variants of: B1
Test: abundance fitness (aPCA) (normalised: wild type 0, dead -1); higher = more abundant; growth selection in yeast, the domain comes from the species named
Details: Homo sapiens

Variant	abundance fitness
VRPVQFQKNTDEPMGITLKMNELNHCIVARIMHGGMIHRQGTLHVGDEIREINGISVANQTVEQLQKMLREMRGSITFKIVP	-0.322 ± 0.044
VRDVQFQKNTDEPMGITLKMNELNHCIVARIMHGGMIHRQGTLHVGDEIREINGISVANQTVEQLQKMLREMRGSITFKIVP	-0.141 ± 0.041
VRFVQFQKNTDEPMGITLKMNELNHCIVARIMHGGMIHRQGTLHVGDEIREINGISVANQTVEQLQKMLREMRGSITFKIVP	0.007 ± 0.05
VRTVQFQKNTDEPMGITLKMNELNHCIVARIMHGGMIHRQGTLHVGDEIREINGISVANQTVEQLQKMLREMRGSITFKIVP	0.033 ± 0.034
VRGVQFQKNTDEPMGITLKMNELNHCIVARIMHGGMIHRQGTLHVGDEIREINGISVANQTVEQLQKMLREMRGSITFKIVP	-0.307 ± 0.023
VRQVQFQKNTDEPMGITLKMNELNHCIVARIMHGGMIHRQGTLHVGDEIREINGISVANQTVEQLQKMLREMRGSITFKIVP	0.018 ± 0.03
VRKVQFQKNTDEPMGITLKMNELNHCIVARIMHGGMIHRQGTLHVGDEIREINGISVANQTVEQLQKMLREMRGSITFKIVP	-0.026 ± 0.034
VRVVQFQKNTDEPMGITLKMNELNHCIVARIMHGGMIHRQGTLHVGDEIREINGISVANQTVEQLQKMLREMRGSITFKIVP	0.002 ± 0.026
VRYVQFQKNTDEPMGITLKMNELNHCIVARIMHGGMIHRQGTLHVGDEIREINGISVANQTVEQLQKMLREMRGSITFKIVP	-0.015 ± 0.043
VRWVQFQKNTDEPMGITLKMNELNHCIVARIMHGGMIHRQGTLHVGDEIREINGISVANQTVEQLQKMLREMRGSITFKIVP	-0.113 ± 0.026
VRAVQFQKNTDEPMGITLKMNELNHCIVARIMHGGMIHRQGTLHVGDEIREINGISVANQTVEQLQKMLREMRGSITFKIVP	-0.14 ± 0.029
VRNVQFQKNTDEPMGITLKMNELNHCIVARIMHGGMIHRQGTLHVGDEIREINGISVANQTVEQLQKMLREMRGSITFKIVP	-0.13 ± 0.053
VRIVQFQKNTDEPMGITLKMNELNHCIVARIMHGGMIHRQGTLHVGDEIREINGISVANQTVEQLQKMLREMRGSITFKIVP	0.085 ± 0.064
VREVQFQKNTDEPMGITLKMNELNHCIVARIMHGGMIHRQGTLHVGDEIREINGISVANQTVEQLQKMLREMRGSITFKIVP	0.094 ± 0.029
VRSVQFQKNTDEPMGITLKMNELNHCIVARIMHGGMIHRQGTLHVGDEIREINGISVANQTVEQLQKMLREMRGSITFKIVP	-0.026 ± 0.028
VRCVQFQKNTDEPMGITLKMNELNHCIVARIMHGGMIHRQGTLHVGDEIREINGISVANQTVEQLQKMLREMRGSITFKIVP	-0.198 ± 0.038
VILVQFQKNTDEPMGITLKMNELNHCIVARIMHGGMIHRQGTLHVGDEIREINGISVANQTVEQLQKMLREMRGSITFKIVP	-0.029 ± 0.06
VYLVQFQKNTDEPMGITLKMNELNHCIVARIMHGGMIHRQGTLHVGDEIREINGISVANQTVEQLQKMLREMRGSITFKIVP	-0.002 ± 0.065
VKLVQFQKNTDEPMGITLKMNELNHCIVARIMHGGMIHRQGTLHVGDEIREINGISVANQTVEQLQKMLREMRGSITFKIVP	-0.055 ± 0.036
VLLVQFQKNTDEPMGITLKMNELNHCIVARIMHGGMIHRQGTLHVGDEIREINGISVANQTVEQLQKMLREMRGSITFKIVP	-0.159 ± 0.036
VTLVQFQKNTDEPMGITLKMNELNHCIVARIMHGGMIHRQGTLHVGDEIREINGISVANQTVEQLQKMLREMRGSITFKIVP	-0.038 ± 0.038
VNLVQFQKNTDEPMGITLKMNELNHCIVARIMHGGMIHRQGTLHVGDEIREINGISVANQTVEQLQKMLREMRGSITFKIVP	0.091 ± 0.057
VMLVQFQKNTDEPMGITLKMNELNHCIVARIMHGGMIHRQGTLHVGDEIREINGISVANQTVEQLQKMLREMRGSITFKIVP	0.019 ± 0.033

Variant	abundance fitness
VGLVQFQKNTDEPMGITLKMNELNHCIVARIMHGGMIHRQGTLHVGDEIREINGISVANQTVEQLQKMLREMRGSITFKIVP	-0.225 ± 0.024
VCLVQFQKNTDEPMGITLKMNELNHCIVARIMHGGMIHRQGTLHVGDEIREINGISVANQTVEQLQKMLREMRGSITFKIVP	-0.09 ± 0.049
VVLVQFQKNTDEPMGITLKMNELNHCIVARIMHGGMIHRQGTLHVGDEIREINGISVANQTVEQLQKMLREMRGSITFKIVP	-0.089 ± 0.029
VALVQFQKNTDEPMGITLKMNELNHCIVARIMHGGMIHRQGTLHVGDEIREINGISVANQTVEQLQKMLREMRGSITFKIVP	-0.149 ± 0.03
VDLVQFQKNTDEPMGITLKMNELNHCIVARIMHGGMIHRQGTLHVGDEIREINGISVANQTVEQLQKMLREMRGSITFKIVP	-0.149 ± 0.054
VHLVQFQKNTDEPMGITLKMNELNHCIVARIMHGGMIHRQGTLHVGDEIREINGISVANQTVEQLQKMLREMRGSITFKIVP	-0.05 ± 0.061
VELVQFQKNTDEPMGITLKMNELNHCIVARIMHGGMIHRQGTLHVGDEIREINGISVANQTVEQLQKMLREMRGSITFKIVP	-0.028 ± 0.034
VSLVQFQKNTDEPMGITLKMNELNHCIVARIMHGGMIHRQGTLHVGDEIREINGISVANQTVEQLQKMLREMRGSITFKIVP	-0.084 ± 0.036
WRLVQFQKNTDEPMGITLKMNELNHCIVARIMHGGMIHRQGTLHVGDEIREINGISVANQTVEQLQKMLREMRGSITFKIVP	-0.122 ± 0.047
ARLVQFQKNTDEPMGITLKMNELNHCIVARIMHGGMIHRQGTLHVGDEIREINGISVANQTVEQLQKMLREMRGSITFKIVP	-0.119 ± 0.033
HRLVQFQKNTDEPMGITLKMNELNHCIVARIMHGGMIHRQGTLHVGDEIREINGISVANQTVEQLQKMLREMRGSITFKIVP	-0.207 ± 0.069
DRLVQFQKNTDEPMGITLKMNELNHCIVARIMHGGMIHRQGTLHVGDEIREINGISVANQTVEQLQKMLREMRGSITFKIVP	0.055 ± 0.039
GRLVQFQKNTDEPMGITLKMNELNHCIVARIMHGGMIHRQGTLHVGDEIREINGISVANQTVEQLQKMLREMRGSITFKIVP	-0.037 ± 0.028
IRLVQFQKNTDEPMGITLKMNELNHCIVARIMHGGMIHRQGTLHVGDEIREINGISVANQTVEQLQKMLREMRGSITFKIVP	0.085 ± 0.042
FRLVQFQKNTDEPMGITLKMNELNHCIVARIMHGGMIHRQGTLHVGDEIREINGISVANQTVEQLQKMLREMRGSITFKIVP	-0.026 ± 0.049
PRLVQFQKNTDEPMGITLKMNELNHCIVARIMHGGMIHRQGTLHVGDEIREINGISVANQTVEQLQKMLREMRGSITFKIVP	-0.376 ± 0.11
SRLVQFQKNTDEPMGITLKMNELNHCIVARIMHGGMIHRQGTLHVGDEIREINGISVANQTVEQLQKMLREMRGSITFKIVP	-0.095 ± 0.038
QRLVQFQKNTDEPMGITLKMNELNHCIVARIMHGGMIHRQGTLHVGDEIREINGISVANQTVEQLQKMLREMRGSITFKIVP	-0.189 ± 0.09
RRLVQFQKNTDEPMGITLKMNELNHCIVARIMHGGMIHRQGTLHVGDEIREINGISVANQTVEQLQKMLREMRGSITFKIVP	-0.177 ± 0.043
LRLVQFQKNTDEPMGITLKMNELNHCIVARIMHGGMIHRQGTLHVGDEIREINGISVANQTVEQLQKMLREMRGSITFKIVP	-0.098 ± 0.035
NRLVQFQKNTDEPMGITLKMNELNHCIVARIMHGGMIHRQGTLHVGDEIREINGISVANQTVEQLQKMLREMRGSITFKIVP	0.037 ± 0.048
MRLVQFQKNTDEPMGITLKMNELNHCIVARIMHGGMIHRQGTLHVGDEIREINGISVANQTVEQLQKMLREMRGSITFKIVP	0.099 ± 0.045
TRLVQFQKNTDEPMGITLKMNELNHCIVARIMHGGMIHRQGTLHVGDEIREINGISVANQTVEQLQKMLREMRGSITFKIVP	0.015 ± 0.043

Variant	abundance fitness
KRLVQFQKNTDEPMGITLKMNELNHCIVARIMHGGMIHRQGTLHVGDEIREINGISVANQTVEQLQKMLREMRGSITFKIVP	-0.046 ± 0.063
ERLVQFQKNTDEPMGITLKMNELNHCIVARIMHGGMIHRQGTLHVGDEIREINGISVANQTVEQLQKMLREMRGSITFKIVP	0.03 ± 0.043
CRLVQFQKNTDEPMGITLKMNELNHCIVARIMHGGMIHRQGTLHVGDEIREINGISVANQTVEQLQKMLREMRGSITFKIVP	-0.056 ± 0.047
YRLVQFQKNTDEPMGITLKMNELNHCIVARIMHGGMIHRQGTLHVGDEIREINGISVANQTVEQLQKMLREMRGSITFKIVP	0.017 ± 0.059
VRLVAFQKNTDEPMGITLKMNELNHCIVARIMHGGMIHRQGTLHVGDEIREINGISVANQTVEQLQKMLREMRGSITFKIVP	0.07 ± 0.023
VRLQQFQKNTDEPMGITLKMNELNHCIVARIMHGGMIHRQGTLHVGDEIREINGISVANQTVEQLQKMLREMRGSITFKIVP	-0.565 ± 0.045
VRLWQFQKNTDEPMGITLKMNELNHCIVARIMHGGMIHRQGTLHVGDEIREINGISVANQTVEQLQKMLREMRGSITFKIVP	-0.307 ± 0.028
VRLFQFQKNTDEPMGITLKMNELNHCIVARIMHGGMIHRQGTLHVGDEIREINGISVANQTVEQLQKMLREMRGSITFKIVP	-0.094 ± 0.05
VRLMQFQKNTDEPMGITLKMNELNHCIVARIMHGGMIHRQGTLHVGDEIREINGISVANQTVEQLQKMLREMRGSITFKIVP	-0.138 ± 0.037
VRLRQFQKNTDEPMGITLKMNELNHCIVARIMHGGMIHRQGTLHVGDEIREINGISVANQTVEQLQKMLREMRGSITFKIVP	-0.265 ± 0.023
VRLLQFQKNTDEPMGITLKMNELNHCIVARIMHGGMIHRQGTLHVGDEIREINGISVANQTVEQLQKMLREMRGSITFKIVP	-0.024 ± 0.025
VRLKQFQKNTDEPMGITLKMNELNHCIVARIMHGGMIHRQGTLHVGDEIREINGISVANQTVEQLQKMLREMRGSITFKIVP	-0.259 ± 0.039
VRLIQFQKNTDEPMGITLKMNELNHCIVARIMHGGMIHRQGTLHVGDEIREINGISVANQTVEQLQKMLREMRGSITFKIVP	-0.091 ± 0.049
VRLAQFQKNTDEPMGITLKMNELNHCIVARIMHGGMIHRQGTLHVGDEIREINGISVANQTVEQLQKMLREMRGSITFKIVP	-0.199 ± 0.027
VRLDQFQKNTDEPMGITLKMNELNHCIVARIMHGGMIHRQGTLHVGDEIREINGISVANQTVEQLQKMLREMRGSITFKIVP	-0.842 ± 0.1
VRLTQFQKNTDEPMGITLKMNELNHCIVARIMHGGMIHRQGTLHVGDEIREINGISVANQTVEQLQKMLREMRGSITFKIVP	-0.239 ± 0.037
VRLYQFQKNTDEPMGITLKMNELNHCIVARIMHGGMIHRQGTLHVGDEIREINGISVANQTVEQLQKMLREMRGSITFKIVP	-0.19 ± 0.055
VRLSQFQKNTDEPMGITLKMNELNHCIVARIMHGGMIHRQGTLHVGDEIREINGISVANQTVEQLQKMLREMRGSITFKIVP	-0.392 ± 0.033
VRLCQFQKNTDEPMGITLKMNELNHCIVARIMHGGMIHRQGTLHVGDEIREINGISVANQTVEQLQKMLREMRGSITFKIVP	-0.165 ± 0.04
VRLHQFQKNTDEPMGITLKMNELNHCIVARIMHGGMIHRQGTLHVGDEIREINGISVANQTVEQLQKMLREMRGSITFKIVP	-0.235 ± 0.059
VRLGQFQKNTDEPMGITLKMNELNHCIVARIMHGGMIHRQGTLHVGDEIREINGISVANQTVEQLQKMLREMRGSITFKIVP	-0.677 ± 0.028
